Test results published in the supplement of paper PMC9112550, “Optimization of the antimicrobial peptide Bac7 by deep mutational scanning” (BMC Biology, 2022).

What follows are sequences tested on Escherichia coli TOP10 (assay: shrunken log2 fold change of peptide-encoding DNA abundance (4.5 h post-induction vs induction); higher = less antimicrobial activity (less host growth inhibition)). Conditions: time post-induction: 4.5 h; library: site-saturation at positions 5, 18, 19, 20.
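Further: peptides expressed intracellularly from a pBAD plasmid library in pooled LB shake-flask culture, induced with 0.3% L-arabinose, DNA abundance read by NGS, three biological replicates, DESeq2 with apeglm shrinkage.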

| Sequence | shrunken log2 fold change |
| --- | --- |
| RRIRNRPPRLPRPRPRPRCCPRP | -0.247 |
| RRIRNRPPRLPRPRPRPRDDPRP | 0.145 |
| RRIRNRPPRLPRPRPRPRDHPRP | -0.219 |
| RRIRNRPPRLPRPRPRPRDVPRP | 0.0624 |
| RRIRNRPPRLPRPRPRPRENPRP | -0.0577 |
| RRIRNRPPRLPRPRPRPRFYPRP | -0.201 |
| RRIRNRPPRLPRPRPRPRGEPRP | -0.029 |
| RRIRNRPPRLPRPRPRPRGLPRP | 0.342 |
| RRIRNRPPRLPRPRPRPRGQPRP | 0.114 |
| RRIRNRPPRLPRPRPRPRHFPRP | -0.201 |
| RRIRNRPPRLPRPRPRPRHYPRP | -0.446 |
| RRIRNRPPRLPRPRPRPRIYPRP | -0.0955 |
| RRIRNRPPRLPRPRPRPRLPPRP | 0.245 |
| RRIRNRPPRLPRPRPRPRLWPRP | 0.0283 |
| RRIRNRPPRLPRPRPRPRMCPRP | 0.138 |
| RRIRNRPPRLPRPRPRPRPQPRP | 0.339 |
| RRIRNRPPRLPRPRPRPRPVPRP | 0.303 |
| RRIRNRPPRLPRPRPRPRQLPRP | 0.244 |
| RRIRNRPPRLPRPRPRPRQVPRP | -0.306 |
| RRIRNRPPRLPRPRPRPRRPPRP | 0.3 |
| RRIRNRPPRLPRPRPRPRSEPRP | 0.139 |
| RRIRNRPPRLPRPRPRPRSRPRP | 0.177 |

| Sequence | shrunken log2 fold change |
| --- | --- |
| RRIRNRPPRLPRPRPRPRTWPRP | 0.415 |
| RRIRNRPPRLPRPRPRPSCAPRP | -0.0999 |
| RRIRNRPPRLPRPRPRPSCQPRP | -0.185 |
| RRIRNRPPRLPRPRPRPSDHPRP | -0.381 |
| RRIRNRPPRLPRPRPRPSDIPRP | 0.0588 |
| RRIRNRPPRLPRPRPRPSDMPRP | -0.117 |
| RRIRNRPPRLPRPRPRPSEMPRP | -0.0844 |
| RRIRNRPPRLPRPRPRPSERPRP | -0.016 |
| RRIRNRPPRLPRPRPRPSFPPRP | -0.19 |
| RRIRNRPPRLPRPRPRPSHIPRP | -0.69 |
| RRIRNRPPRLPRPRPRPSHSPRP | -0.182 |
| RRIRNRPPRLPRPRPRPSMKPRP | -0.609 |
| RRIRNRPPRLPRPRPRPSMSPRP | -0.222 |
| RRIRNRPPRLPRPRPRPSMYPRP | -0.309 |
| RRIRNRPPRLPRPRPRPSPCPRP | -0.36 |
| RRIRNRPPRLPRPRPRPSPVPRP | 0.00108 |
| RRIRNRPPRLPRPRPRPSQIPRP | -0.664 |
| RRIRNRPPRLPRPRPRPSRFPRP | -0.0872 |
| RRIRNRPPRLPRPRPRPSRNPRP | 0.0074 |
| RRIRNRPPRLPRPRPRPSRTPRP | 0.0867 |
| RRIRNRPPRLPRPRPRPSSDPRP | -0.171 |
| RRIRNRPPRLPRPRPRPSTSPRP | -0.36 |

| Sequence | shrunken log2 fold change |
| --- | --- |
| RRIRNRPPRLPRPRPRPSTYPRP | -0.318 |
| RRIRNRPPRLPRPRPRPSVHPRP | -0.311 |
| RRIRNRPPRLPRPRPRPSVTPRP | 0.0789 |
| RRIRNRPPRLPRPRPRPTANPRP | 0.0124 |
| RRIRNRPPRLPRPRPRPTDVPRP | -0.0793 |
| RRIRNRPPRLPRPRPRPTEQPRP | -0.209 |
| RRIRNRPPRLPRPRPRPTFDPRP | 0.0109 |
| RRIRNRPPRLPRPRPRPTGDPRP | 0.258 |
| RRIRNRPPRLPRPRPRPTGSPRP | 0.1 |
| RRIRNRPPRLPRPRPRPTICPRP | -0.119 |
| RRIRNRPPRLPRPRPRPTKFPRP | -0.607 |
| RRIRNRPPRLPRPRPRPTKTPRP | 0.0911 |
| RRIRNRPPRLPRPRPRPTMAPRP | 0.0535 |
| RRIRNRPPRLPRPRPRPTMMPRP | 0.0241 |
| RRIRNRPPRLPRPRPRPTNKPRP | -0.468 |
| RRIRNRPPRLPRPRPRPTSMPRP | 0.0812 |
| RRIRNRPPRLPRPRPRPTTMPRP | -0.0975 |
| RRIRNRPPRLPRPRPRPTVVPRP | 0.229 |
| RRIRNRPPRLPRPRPRPTVYPRP | 0.0487 |
| RRIRNRPPRLPRPRPRPTWAPRP | 0.374 |
| RRIRNRPPRLPRPRPRPTWIPRP | -0.0601 |
| RRIRNRPPRLPRPRPRPTWVPRP | 0.0257 |

| Sequence | shrunken log2 fold change |
| --- | --- |
| RRIRNRPPRLPRPRPRPVCHPRP | -0.169 |
| RRIRNRPPRLPRPRPRPVEEPRP | 0.0471 |
| RRIRNRPPRLPRPRPRPVHKPRP | -0.182 |
| RRIRNRPPRLPRPRPRPVHPPRP | -0.0892 |
| RRIRNRPPRLPRPRPRPVIVPRP | -0.112 |
| RRIRNRPPRLPRPRPRPVNLPRP | -0.0237 |
| RRIRNRPPRLPRPRPRPVNYPRP | -0.179 |
| RRIRNRPPRLPRPRPRPVPLPRP | -0.539 |
| RRIRNRPPRLPRPRPRPVPNPRP | -0.0122 |
| RRIRNRPPRLPRPRPRPVQIPRP | 0.00489 |
| RRIRNRPPRLPRPRPRPVQLPRP | 0.176 |
| RRIRNRPPRLPRPRPRPVTCPRP | -0.45 |
| RRIRNRPPRLPRPRPRPVTYPRP | -0.168 |
| RRIRNRPPRLPRPRPRPVYDPRP | -0.386 |
| RRIRNRPPRLPRPRPRPVYEPRP | -0.027 |
| RRIRNRPPRLPRPRPRPVYLPRP | -0.216 |
| RRIRNRPPRLPRPRPRPWACPRP | 0.0014 |
| RRIRNRPPRLPRPRPRPWADPRP | -0.124 |
| RRIRNRPPRLPRPRPRPWDWPRP | 0.0265 |
| RRIRNRPPRLPRPRPRPWFCPRP | -0.861 |
| RRIRNRPPRLPRPRPRPWFYPRP | -0.154 |
| RRIRNRPPRLPRPRPRPWGRPRP | 0.0851 |

| Sequence | shrunken log2 fold change |
| --- | --- |
| RRIRNRPPRLPRPRPRPWGVPRP | 0.112 |
| RRIRNRPPRLPRPRPRPWHIPRP | -0.325 |
| RRIRNRPPRLPRPRPRPWIRPRP | -0.399 |
| RRIRNRPPRLPRPRPRPWLCPRP | 0.00252 |
| RRIRNRPPRLPRPRPRPWPEPRP | -0.0309 |
| RRIRNRPPRLPRPRPRPWQNPRP | 0.191 |
| RRIRNRPPRLPRPRPRPWQPPRP | 0.104 |
| RRIRNRPPRLPRPRPRPWRYPRP | -0.0121 |
| RRIRNRPPRLPRPRPRPWSMPRP | -0.0638 |
| RRIRNRPPRLPRPRPRPWVLPRP | 0.0737 |
| RRIRNRPPRLPRPRPRPWVTPRP | -0.0711 |
| RRIRNRPPRLPRPRPRPWWNPRP | -0.141 |
| RRIRNRPPRLPRPRPRPWYAPRP | -0.533 |
| RRIRNRPPRLPRPRPRPWYGPRP | -0.56 |
| RRIRNRPPRLPRPRPRPYDKPRP | -0.388 |
| RRIRNRPPRLPRPRPRPYGAPRP | -0.397 |
| RRIRNRPPRLPRPRPRPYILPRP | -1.07 |
| RRIRNRPPRLPRPRPRPYKYPRP | -0.369 |
| RRIRNRPPRLPRPRPRPYLTPRP | -0.332 |
| RRIRNRPPRLPRPRPRPYLVPRP | -0.161 |
| RRIRNRPPRLPRPRPRPYMMPRP | -0.118 |
